Laboratory results: article PMC11479942, “XPD stalled on cross-linked DNA provides insight into damage verification”
Values belong to the molecule of their own block, whether it stands above or below them.

Tests used:
[1] = biological target: super-unplugged XPD variant (Chaetomium thermophilum)
XPD wild type (ctXPD) = biological target: T1, XPD wild type (ctXPD) (Chaetomium thermophilum (paper: C. …, UniProt G0RZH0 1-780)); test: fluorescence anisotropy; 5 mM MgCl2, no nucleotide; Fluorescence anisotropy: 20 mM HEPES pH 7.5, 50 mM KCl, 5 mM MgCl2, 1 mM TCEP, 5 nM DNA, room temperature; cryo-EM: same buffer, 10 uM complex, DNA 1.25:1, 5 mM ATP; settings: protein: recombinant; tags: N-terminal 6xHis, TEV site (pBADM-11); label: 5' Cy3; hairpin with 5' overhang
T1 sequence: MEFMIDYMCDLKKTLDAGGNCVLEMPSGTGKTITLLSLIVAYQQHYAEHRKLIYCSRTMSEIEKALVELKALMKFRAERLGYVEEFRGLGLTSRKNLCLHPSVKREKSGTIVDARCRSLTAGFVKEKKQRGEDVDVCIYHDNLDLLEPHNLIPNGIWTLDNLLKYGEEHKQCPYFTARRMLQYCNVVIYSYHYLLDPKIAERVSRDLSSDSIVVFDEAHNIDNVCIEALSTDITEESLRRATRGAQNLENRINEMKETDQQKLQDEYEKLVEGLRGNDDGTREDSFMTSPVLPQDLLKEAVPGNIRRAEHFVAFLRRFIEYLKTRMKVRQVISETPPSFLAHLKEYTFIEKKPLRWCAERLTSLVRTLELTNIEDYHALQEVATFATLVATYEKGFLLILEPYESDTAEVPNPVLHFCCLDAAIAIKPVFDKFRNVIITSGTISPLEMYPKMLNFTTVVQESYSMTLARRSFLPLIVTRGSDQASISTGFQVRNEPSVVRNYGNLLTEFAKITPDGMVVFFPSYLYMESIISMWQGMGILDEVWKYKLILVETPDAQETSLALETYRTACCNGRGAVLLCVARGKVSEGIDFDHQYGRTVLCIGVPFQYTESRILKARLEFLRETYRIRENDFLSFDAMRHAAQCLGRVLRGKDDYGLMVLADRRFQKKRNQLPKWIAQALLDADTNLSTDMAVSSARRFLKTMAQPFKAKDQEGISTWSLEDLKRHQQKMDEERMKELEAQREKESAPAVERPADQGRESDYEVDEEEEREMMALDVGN

XPD helicase activity (fluorescence-based, Y-forked DNA 250 nM, XPD–p44 250 nM) with equimolar XPG D924A (250 nM); inhibition by XPG D924A [1]: 6 fold
Molecule: XPG D924A from Chaetomium thermophilum (enzyme)

B1: 5' overhang self-annealing hairpin (structured_DNA)
DNA: TTTTTTTTTTTTTTTCCCGGCCATGCGAAGCATGGCCGTT
Kd (XPD wild type (ctXPD)): 0.03 µM
